Reference: US20200353078A1 (AstraZeneca / MedImmune, published 2020)
Residue numbers refer to the chain shown, from its start. Values belong to the binder of their own block, whether it stands above or below them.

Tests used:
[1] = target: T1, Human IL-33 Flag®His (human); experiment: cell-based or functional assay
T1 chain: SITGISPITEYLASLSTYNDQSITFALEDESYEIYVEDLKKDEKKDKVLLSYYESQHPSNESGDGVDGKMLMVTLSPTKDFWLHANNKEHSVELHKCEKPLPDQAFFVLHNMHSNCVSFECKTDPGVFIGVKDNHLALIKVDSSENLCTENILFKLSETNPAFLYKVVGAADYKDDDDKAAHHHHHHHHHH

[2] = target: T1, Human IL-33 Flag®His; experiment: HTRF competition, IgG titrated against biotinylated human ST2-Fc
Description: (§1) The ability of anti-IL-33 antibodies to inhibit the binding of FLAG®-His tagged IL-33 to the ST2 receptor was assessed in a biochemical HTRF® (Homogeneous Time-Resolved Fluorescence, Cisbio International) competition assay, the principles of which are described above.
(§2) Activity of purified IgG preparations were determined by competing a dilution series of the purified IgG against biotinylated human or mouse ST2.Fc for binding to FLAG® His-tagged human, cynomolgus or mouse IL-33.
(§3) Purified or unpurified anti-IL-33 antibody samples were tested for inhibition of FLAG®-His tagged IL-33 binding ST2-Fc by adding 10 microlitres of each dilution of antibody test sample to a 384 well low volume assay plate (Costar 3676). Next, a solution containing 4 nM biotinylated human or mouse ST2-Fc and 20 nM streptavidin XL665 detection (Cisbio International, 611SAXLB) was prepared and 5 microlitres of the mix added to the assay plate. This was followed by the addition of 5 microlitres of a solution containing 1.2 nM FLAG®-His tagged human, cynomolgus or mouse IL-33 combined with 1.72 nM anti-FLAG® cryptate detection (Cisbio International, 61FG2KLB). All dilutions were performed in assay buffer comprised of Dulbeccos PBS (Invitrogen, 14190185) containing 0.8 M potassium fluoride (BDH 103444T) and 0.1% BSA (Sigma A9576). Assay plates were incubated for 2 hour at room temperature followed by 16 hour at 4° C. before reading time resolved fluorescence at 620 nm and 665 nm emission wavelengths using an EnVision plate reader (Perkin Elmer).

[3] = target: T2, Cynomolgus IL-33 Flag®His (cynomolgus monkey); experiment: as above
T2 construct: C-terminal FLAG 10xHis tag, E. coli; also called Mature Cynomolugus IL-33; cyno IL-33 FH
T2 chain: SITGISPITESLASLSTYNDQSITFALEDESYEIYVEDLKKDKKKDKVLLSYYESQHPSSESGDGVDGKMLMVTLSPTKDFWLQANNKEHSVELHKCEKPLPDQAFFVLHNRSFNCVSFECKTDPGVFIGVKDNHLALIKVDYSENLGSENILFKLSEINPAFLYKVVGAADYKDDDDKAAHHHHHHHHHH
Description: as §1, §2, §3

[4] = target: T1, Human IL-33 Flag®His; experiment: SPR BIAcore 2000, IgG captured on Protein G', IL-33 as analyte, 1:1 Langmuir
Description: (§4) The binding affinity of purified IgG samples of exemplary binding members to human and cynomolgus IL-33 was determined by surface plasmon resonance using BIAcore 2000 biosensor (BIAcore AB) essentially as described by Karlsson et al., J Immunol Methods 145(1-2):229-40 (1991). In brief, Protein G′ (Sigma Aldrich, P4689) was covalently coupled to the surface of a CM5 sensor chip using standard amine coupling reagents according to manufacturer's instructions (BIAcore). The protein G′ surface was used to capture purified anti-IL-33 antibodies via the Fc domain to provide a surface density of approximately 290 RU per cycle. Human or cynomolgus IL-33 prepared in HBS-EP buffer (BIAcore AB), at a range of concentrations, between 600 nM and 18.75 nM, were passed over the sensor chip surface. The surface was regenerated using two 10 mM Glycine washes of pH 1.7 and pH 1.5 between each injection of antibody. The resulting sensorgrams were evaluated using BIA evaluation 3.1 software and fitted to a 1:1 Langmuir binding model, to provide relative binding data. The binding results (KD, Ka, and Kd) for antibodies IL330002 and IL330004 binding to human or cynomolgus IL-33 are shown in Table 8.

[5] = target: T2, Cynomolgus IL-33 Flag®His; experiment: as above
Description: as §4

[6] = target: T3, Endogenous human IL-33 (human, UniProt O95760 1-270, limits assumed); experiment: cell-based or functional assay
T3 sequence (looked up): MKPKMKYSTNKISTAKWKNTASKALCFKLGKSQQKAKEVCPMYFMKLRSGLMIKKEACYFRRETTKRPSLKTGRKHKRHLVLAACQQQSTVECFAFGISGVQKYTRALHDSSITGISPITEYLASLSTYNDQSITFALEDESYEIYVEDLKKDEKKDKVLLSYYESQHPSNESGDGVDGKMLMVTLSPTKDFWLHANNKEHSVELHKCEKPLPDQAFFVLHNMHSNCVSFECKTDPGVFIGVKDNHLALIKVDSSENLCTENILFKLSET

[7] = target: T4, Full-length human IL-33 (amino acids 1-270), HEK293-EBNA cell lysate (human, UniProt O95760 1-270); experiment: cell-based or functional assay
T4 sequence (looked up): T3 sequence (looked up)

[8] = target: T5, Human IL-33 (Axxora/Adipogen AG-40B-0038) (human, UniProt O95760 112-270, limits assumed); experiment: cell-based or functional assay
T5 sequence (looked up): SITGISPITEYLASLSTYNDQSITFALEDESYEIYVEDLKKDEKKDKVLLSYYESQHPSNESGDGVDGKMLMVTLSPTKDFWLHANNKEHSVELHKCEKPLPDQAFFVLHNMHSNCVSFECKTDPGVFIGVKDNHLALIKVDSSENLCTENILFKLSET

[9] = target: T5, Human IL-33 (Axxora/Adipogen …); experiment: cell-based or functional assay; remark: listed apart in the source
[10] = target: T5, Human IL-33 (Axxora/Adipogen …); experiment: HTRF epitope competition: unlabelled IgG against DyLight labelled H338L293 for biotinylated human IL-33
[11] = target: T6, 33_640237-2B IgG1; experiment: HTRF: unlabelled test protein competes with biotinylated human IL33-01 for DyLight650 labelled 33_640237-2B IgG
T6 construct: IgG1
Description: Human, cyno and mouse IL-33 FLAG® His (described in Example 1 and Table 21), Human IL-1 alpha and IL-1 beta (R&D Systems) (Table 21) or rat IL-33 (GenScript) were tested for inhibition of human IL-33 binding to DyLight650 labelled 33_640087-7B or DyLight650 labelled 33_640237-2B by adding 5 microlitres of each dilution of sample to a 384 well low volume assay plate (Costar, 3673). […] This was followed by the addition of 2.5 microlitres of a solution containing 0.12 nM biotinylated human IL-33-01 combined with 0.75 nM streptavidin cryptate detection (Cisbio International, 610SAKLB). All dilutions were performed in assay buffer containing 0.8 M potassium fluoride (VWR, 26820.236) and 0.1% bovine serum albumin (BSA, PAA, K05-013) in Dulbeccos PBS (Invitrogen, 14190185). Assay plates were incubated for 4 hours at room temperature followed by 18 hours at 4 degrees Celsius and time resolved fluorescence was read at 620 nm and 665 nm emission wavelengths using an EnVision plate reader (Perkin Elmer). Data were analysed by calculating the 665/620 nm ratio followed by the % Delta F values for each sample. The 665/620 nm ratio was used to correct for sample interference using Equation 1. The % Delta F for each sample was then calculated using Equation 2. The negative control (non-specific binding) was defined by replacing biotinylated human IL-33 combined with streptavidin cryptate detection with streptavidin cryptate detection only. The % Delta F values were subsequently used to calculate % specific binding as described in Equation 3. IC₅₀ values were determined using GraphPad Prism software by curve fitting using a four-parameter logistic equation (Equation 4).

B1: IL330002 IgG1 (antibody, V domains shown)
VH: not shown
VL: SYELTQPPSLSVSPGQTASITCSGDKLGDKYVSWYQQKPGQSPILVIYHDNKRPSGIPERFSGSNSGNTATLTISGTQAMDEADYYCQAWDSNAGYVFGTGTKVTVL
notes: Human IgG1, lambda constant
IC50, human ST2 transfected HeLa NFkB luciferase reporter assay [1]: 226 nM
IC50 [2]: 27 nM
IC50 [3]: 42 nM
Kd [4]: 35 nM
koff [4]: 0.00218 s⁻¹
kon [4]: 61600 M⁻¹ s⁻¹
Kd [5]: 189 nM
koff [5]: 0.00442 s⁻¹
kon [5]: 23400 M⁻¹ s⁻¹

B4: H338L293 IgG1 (as in Table 13) (antibody, V domains shown)
VH: EVQLLESGGGLVQPGGSLRLSCAASGFTFSSYAMSWVRQAPGKGLEWVSAISPREGWQYYADSVKGRFTISRDNSKNTLYLQMNSLRAEDTAVYYCVRVVAGYFDSWGRGTLVTVSS
VL: SYVLTQPPSVSVSPGQTARITCSGDALPKQYAHWYQQKPGQAPALVIYKDTERPSGIPERFSGSSSGTTVTLTISGVQAEDEADYYCMSSDPSGASRVFGGGTKVTVL
notes: IgG1
Huvec IL-6 production, maximum inhibition [8]: ~70%
Mast cell IL-6 production, inhibition [8]: 100%
IC50, Huvec IL-6 production [9]: 1.9 nM
IC50, Mast cell IL-6 production [9]: 1.7 nM
IC50 (read off the curve) [10]: ~1 nM

B6: IL330396 IgG1 (antibody, V domains shown)
VH: EVQLLESGGGLVQPGGSLRLSCAASGFTFSSYAMSWVRQAPGKGLEWVSASTPWQGSTYYADSVKGRFTISRDNSKNTLYLQMNSLRAEDTAVYYCVRWYWGWIDSWGRGTLVTVSS
VL: B4 VL with P92D, S93T
notes: IgG1; also called IL3300396
Huvec IL-6 production, maximum inhibition [8]: ~70%
Mast cell IL-6 production, inhibition [8]: 100%
IC50 (read off the curve) [10]: ~1 nM

B7: Mouse IL-33 Flag®His (ligand)
chain: SIQGTSLLTQSPASLSTYNDQSVSFVLENGCYVINVDDSGKDQEQDQVLLRYYESPCPASQSGDGVDGKKLMVNMSPIKDTDIWLHANDKDYSVELQRGDVSPPEQAFFVLHKKSSDFVSFECKNLPGTYIGVKDNQLALVEEKDESCNNIMFKLSKINPAFLYKVVGAADYKDDDDKAAHHHHHHHHHH
notes: C-terminal FLAG 10xHis tag, E. coli; also called Mature Mouse IL-33_FH; mouse IL-33 FH
binding result [11]: no binding (tested: about 10^-5.5 M)

Next, values leading:

IC50, human ST2 transfected HeLa NFkB luciferase reporter assay [1]: 226 nM
IC50 [2]: 59 nM
IC50 [3]: 375 nM
B2: IL330071 IgG1 (antibody, V domains shown)
VH: EVQLVESGAEVKQPGASVKVSCKASGYTFTSYGISWVRQAPGQGLEWMGWISAYNGNTNYAQKLQGRVTMTTDTSTSTAYMELRSLRSDDTAVYYCARRGFYHDAFDIWGRGTTVTVSS
VL: AIQLTQSPSSLSASVGDRVTITCRASQGISNYLAWYQQKPGKVPKLLIYAASTLQSGVPSRFSGSGSGTEFTLTISSLQPDDFATYYCQQYNSYSVTFGQGTKVEIK
notes: Human IgG1, lambda constant

IC50, Huvec IL-8 release stimulated by human lung lysate [6]: 0.019 nM
IC50, Huvec IL-8 assay vs. full length IL-33 cell lysate [7]: 0.67 nM
B3: Human ST2-Fc (R&D Systems, or source not stated in the example) (Fc fusion, UniProt Q01638 19-328, looked up, not shown: a dimerising Fc or GST)
chain: KFSKQSWGLENEALIVRCPRQGKPSYTVDWYYSQTNKSIPTQERNRVFASGQLLKFLPAAVADSGIYTCIVRSPTFNRTGYANVTIYKKQSDCNVPDYLMYSTVSGSEKNSKIYCPTIDLYNWTAPLEWFKNCQALQGSRYRAHKSFLVIDNVMTEDAGDYTCKFIHNENGANYSVTATRSFTVKDEQGFSLFPVIGAPAQNEIKEVEIGKNANLTCSACFGKGTQFLAAVLWQLNGTKITDFGEPRIQQEEGQNQSFSNGLACLDMVLRIADVKEEDLLLQYDCLALNLHGLRRHTVRLSRKNPIDHHS

Huvec IL-6 production, maximum inhibition [8]: ~70%
Mast cell IL-6 production, inhibition [8]: 100%
IC50 (read off the curve) [10]: ~1 nM
B5: IL330388 IgG1 (antibody, V domains shown)
VH: B6 VH
VL: B4 VL
notes: IgG1; also called IL3300388
